Target: the molecule itself
Assay: SEC

B1: Wild-type IL-38 (residues 3-152), untagged after TEV cleavage of the N-terminal His10 tag (ligand)
chain: SLPMARYYIIKYADQKALYTRDGQLLVGDPVADNCCAEKICILPNRGLARTKVPIFLGIQGGSRCLACVETEEGPSLQLEDVNIEELYKGGEEATRFTFFQSSSGSAFRLEAAAWPGWFLCGPAEPQQPVQLTKESEPSARTKFYFEQSW
notes: Uncut protein was removed for the Peak A pool; also called IL-38 (WT); WT (D51A) IL-38
**Q.** Does B1 bind?
**A.** Result: binds

— patent US20250034222A1 (MONASH UNIVERSITY, published 2025)
